Patent publication US20190263896A1 (UNIVERSITY OF ZURICH, published 2019)

Key:
[1] = target: T1, artificial amyloid fibrils prepared from synthetic Abeta1-42 peptides (UniProt P05067 672-713); experiment: ELISA, fibrillar Abeta1-42 coated on the plate, antibody 0.1pM to 100nM [right panel]
T1 construct: domain: Abeta1-42; Fibrillar assembly of many copies; also called Abeta1-42 fibrils; synthetic Abeta fibrils

[2] = target: T2, synthetic Abeta1-42 peptide (UniProt P05067 672-713); experiment: ELISA, synthetic Abeta1-42 peptide coated on the plate
T2 construct: domain: Abeta1-42; also called linear synthetic Abeta1-42 monomers

[3] = target: T3, monomeric synthetic Abeta (UniProt P05067 672-713); experiment: ELISA, monomeric synthetic Abeta coated on the plate, antibody titrated
T3 construct: also called monomeric Abeta; linear monomeric Abeta peptide

[4] = target: T4, recombinant human NI-101.11 antibody; experiment: competition ELISA: NI-101.11 (1nM) pre-incubated with the peptide at 10 nM to 10 µM, then binding to the coated plate (the coat is not named) [right panel]
T4 construct: also called human antibody against brain beta-amyloid

B1: recombinant human antibody NI-101.13A (antibody, V domains shown)
VH: QVQLQESGPGLVKPSETLSLTCTVSGGSISRRSYYWGWIRQSPGKGLEWSGSIHYSGSTYYNPSLKSRVTISVDTSKNQFSLKLSSVTAADTAVYYCARSRWGSSWVFDYWGQGTLVTVSS
VL: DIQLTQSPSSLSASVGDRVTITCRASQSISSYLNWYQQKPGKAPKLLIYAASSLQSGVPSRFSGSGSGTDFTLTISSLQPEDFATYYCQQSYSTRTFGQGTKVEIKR
Q: Does B1 bind [1]?
A: binds

B2: recombinant human antibody NI-101.13B (antibody, V domains shown)
VH: B1 VH
VL: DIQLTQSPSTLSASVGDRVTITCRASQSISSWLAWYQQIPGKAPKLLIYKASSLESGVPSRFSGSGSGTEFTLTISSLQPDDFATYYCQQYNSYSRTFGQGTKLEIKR
Q: Does B2 bind [1]?
A: binds

B3: recombinant NI-101.12 (antibody, V domains shown)
VH: EVQLVESGPGLVKPAETLSLTCTVSGGSIRSGSICWYWIRQPPGKGLEWIGYFCYSGATFYTPSLRGRLTISVDASKNQLSLSLSSVTAADTAVYYCARRAGENSGGIEPYYGMDVWGQGTTVTVSS
VL: EIVLTQSPSSLSASIGDRVTITCRASESINKYVNWYQQKPGKAPKLLIYAASSLQSGAPSRVSGSGFGRDFSLTISGLQAEDFGAYFCQQSYSAPYTFGQGTKVEIKR
Q: Does B3 bind [2]?
A: binds

B4: control antibody 22C4 (antibody, V domains shown)
VH: QVQLQQSGPELVKPGASVKISCKTSGYTFTEYTMHWVKQSHGKSLEWIGGVNPYNDNTSYIRKLQGKVTLTVDRSSSTAYMELRSLTSEDSAVYFCARYGGLRPYYFPMDFWGQGTSVTVSS
VL: DIVLTQSPAILSASPGEKVTLTCRASSSVNYMHWYQQKPGSPPKAWIYATSNLASGVPDRFSASGSGTSYSLTISRVEAEDAATYYCQQWRTNPPTFGAGTKLELK
Q: How did the “EC50 (read off the curve)” value [3] turn out when B4 was run?
A: ~1 nM

B5: linear synthetic N-terminal Abeta-derived polypeptide representing positions 1 to 16 (peptide)
peptide: DAEFRHDSGYEVHHQK
notes: domain: Abeta1-16; the numbers count on the Abeta peptide; also called Abeta1-16; monomeric Abeta1-16
Q: Does B5 bind [4]?
A: no binding (tested: 10 µM)
